The values that follow are results of earlier work, collected in PMC5711038.

For the data set, the target named is Fbxw7 substrate receptor (Homo sapiens) (UniProt Q969H0). The data set is described as follows: FRET.
Chain of UniProt Q969H0 (Q969H0 whole entry): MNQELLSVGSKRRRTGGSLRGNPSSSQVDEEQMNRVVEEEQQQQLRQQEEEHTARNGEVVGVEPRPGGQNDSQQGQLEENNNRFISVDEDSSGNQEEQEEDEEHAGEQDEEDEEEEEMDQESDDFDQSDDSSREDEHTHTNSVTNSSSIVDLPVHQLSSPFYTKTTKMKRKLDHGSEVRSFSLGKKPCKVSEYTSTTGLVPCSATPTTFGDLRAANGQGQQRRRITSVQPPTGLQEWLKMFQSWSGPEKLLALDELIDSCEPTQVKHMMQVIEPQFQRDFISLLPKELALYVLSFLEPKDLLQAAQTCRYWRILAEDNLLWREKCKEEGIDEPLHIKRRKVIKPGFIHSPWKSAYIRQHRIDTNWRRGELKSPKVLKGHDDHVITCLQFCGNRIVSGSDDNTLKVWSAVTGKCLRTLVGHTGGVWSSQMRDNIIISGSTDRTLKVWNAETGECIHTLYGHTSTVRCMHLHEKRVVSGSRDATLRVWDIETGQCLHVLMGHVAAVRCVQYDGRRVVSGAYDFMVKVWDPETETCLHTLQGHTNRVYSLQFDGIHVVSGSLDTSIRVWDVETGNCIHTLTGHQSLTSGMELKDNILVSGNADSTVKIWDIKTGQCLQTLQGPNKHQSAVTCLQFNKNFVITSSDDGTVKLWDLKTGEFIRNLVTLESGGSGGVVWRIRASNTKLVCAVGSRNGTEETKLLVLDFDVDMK

For orientation: Kd means a measure of binding affinity in units of concentration. For the substance Cul1 (from UniProt Q13616), the Kd was 1 pM.
